Experimental findings from patent US20210163923A1 (IONTAS, published 2021) are described below.

For orientation: Kd means the free concentration of one partner at which half of the binding sites on the other are occupied at equilibrium, for simple one-to-one binding.

Assay [1] deals with T1, unconjugated streptavidin-PE (UniProt P22629 37-163, limits assumed, phycoerythrin conjugate).
T1 construct: Control staining reagent; also called streptavidin-PE alone
Briefly: flow cytometry of HEK293 cells displaying the IgG, stained with streptavidin PE alone.

For a further assay, the target named is T2, PD-1 (UniProt Q15116 25-167, biotinylated in the MACS experiments).
T2 construct: The catalogue number points to a human PD-1 reagent; also called biotinylated PD1 (PD1-H82E4, AcroBiosystems); PD-1-biotin
T2 sequence (Q15116 25-167 limits assumed): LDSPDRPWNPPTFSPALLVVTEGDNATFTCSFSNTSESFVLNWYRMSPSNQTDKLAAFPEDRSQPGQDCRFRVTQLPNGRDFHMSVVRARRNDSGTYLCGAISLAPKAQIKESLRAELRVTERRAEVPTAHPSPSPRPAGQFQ
The assay can be described thus: surface plasmon resonance (SPR).

The target of assay [2] is T1, unconjugated streptavidin-PE. The assay can be described thus: flow cytometry of HEK293 cells 24 hours after transfection, stained with streptavidin-PE alone [panel Streptavidin PE]. Background: Flow cytometry measures light scatter and fluorescence of single cells or particles in a stream.

T1 sequence (P22629 37-163 limits assumed): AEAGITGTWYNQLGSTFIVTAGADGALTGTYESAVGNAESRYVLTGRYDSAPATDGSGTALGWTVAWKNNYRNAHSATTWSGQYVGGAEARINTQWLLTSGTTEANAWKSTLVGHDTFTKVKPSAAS

B1: Ustekinumab (antibody, V domains shown)
VH: EVQLVQSGAEVKKPGESLKISCKGSGYSFTTYWLGWVRQMPGKGLDWIGIMSPVDSDIRYSPSFQGQVTMSVDKSITTAYLQWNSLKASDTAMYYCARRRPGQGYFDFWGQGTLVTVS
VL: DIQMTQSPSSLSASVGDRVTITCRASQGISSWLAWYQQKPEKAPKSLIYAASSLQSGVPSRFSGSGSGTDFTLTISSLQPEDFATYYCQQYNIYPYTFGQGTKLEIKR
notes: Anti-IL12 antibody; also called Ustenkinumab; Ustenikumab
For B1, in assay [1], the binding result was “no binding”.

B2: 337_1_C08 (antibody, V domains shown)
VH: EVQLVQSGAEVKRPGASVTVSCKASGYTFTNHGISWVRQAPGQGLEWMGWNSPYNGNTNYAQRFQGRVTMTTDTSTNTAYMELRTLTSDDTAMYYCARDRDYYDAGSYWGQGTLVTVSS
VL: SYELTQPPSVSVSPGQTARITCSGDSLPKQYAYWYQQKPGQAPVLVIYKDSERPSGIPERFSGSGSGTTVTLTISGVQAEDEADYYCQSADSDNAFVFGRGTKLTVL
notes: Anti-PD1 antibody identified by phage display; also called anti-PD1 antibody 337_1_C08; 337_C08
B2 registered a Kd with PD-1 of 74 nM.

B3: Emicizumab (bi-specific, displayed from pINT17-Bi-CMV-Emicizumab) (bispecific antibody, human IgG4 S228P)
light: DIQMTQSPSSLSASVGDRVTITCKASRNIERQLAWYQQKPGQAPELLIYQASRKESGVPDRFSGSRYGTDFTLTISSLQPEDIATYYCQQYSDPPLTFGGGTKVEIKRTAAAPSVFIFPPSDEQLKSGTASVVCLLNNFYPREAKVQWKVDNALQSGNSQESVTEQDSKDSTYSLSSTLTLSKADYEKHKVYACEVTHQGLSSPVTKSFNRGEC
heavy 1: QVQLVESGGGLVQPGGSLRLSCAASGFTFSYYDIQWVRQAPGKGLEWVSSISPSGQSTYYRREVKGRFTISRDNSKNTLYLQMNSLRAEDTAVYYCARRTGREYGGGWYFDYWGQGTLVTVSSASTKGPSVFPLAPCSRSTSESTAALGCLVKDYFPEPVTVSWNSGALTSGVHTFPAVLQSSGLYSLSSVVTVPSSSLGTQTYTCNVDHKPSNTKVDKRVESKYGPPCPPCPAPEFLGGPSVFLFPPKPKDTLMISRTPEVTCVVVDVSQEDPEVQFNWYVDGVEVHNAKTKPREEQYNSTYRVVSVLTVLHQDWLNGKEYKCKVSNKGLPSSIEKTISKAKGQPREPQVYTLPPSQKEMTKNQVSLTCLVKGFYPSDIAVEWESNGQPENNYKTTPPVLDSDGSFFLYSKLTVDKSRWQEGNVFSCSVMHEALHNRYTQKSLSLSPEQKLISEEDLNAVGQDTQEVIVVPHSLPFKVVVISAILALVVLTIISLIILIMLWQKKPR
heavy 2: QVQLVQSGSELKKPGASVKVSCKASGYTFTDNNMDWVRQAPGQGLEWMGDINTRSGGSIYNEEFQDRVIMTVDKSTDTAYMELSSLRSEDTATYHCARRKSYGYYLDEWGEGTLVTVSSASTKGPSVFPLAPCSRSTSESTAALGCLVKDYFPEPVTVSWNSGALTSGVHTFPAVLQSSGLYSLSSVVTVPSSSLGTQTYTCNVDHKPSNTKVDKRVESKYGPPCPPCPAPEFLGGPSVFLFPPKPKDTLMISRTPEVTCVVVDVSQEDPEVQFNWYVDGVEVHNAKTKPREEQYNSTYRVVSVLTVLHQDWLNGKEYKCKVSNKGLPSSIEKTISKAKGQPREPQVYTLPPSQEEMTKNQVSLTCLVKGFYPSDIAVEWESNGQPENNYKTTPPVLDSDGSFFLYSKLTVDKSRWQEGNVFSCSVMHEALHNHYTQESLSLSPEQKLISEEDLNAVGQDTQEVIVVPHSLPFKVVVISAILALVVLTIISLIILIMLWQKKPR
notes: also called bi-specific Emicizumab; knobs-into-holes common light chain IgG
In the case of B3, in assay [2], the binding result is on record as “no binding”.

B4: mono-specific anti-FIXa IgG (Emicizumab anti-FIXa VH with Emicizumab VL, pINT17-BSD-anti-FIXa) (antibody, V domains shown)
VH: QVQLVESGGGLVQPGGSLRLSCAASGFTFSYYDIQWVRQAPGKGLEWVSSISPSGQSTYYRREVKGRFTISRDNSKNTLYLQMNSLRAEDTAVYYCARRTGREYGGGWYFDYWGQGTLVTVSS
VL: DIQMTQSPSSLSASVGDRVTITCKASRNIERQLAWYQQKPGQAPELLIYQASRKESGVPDRFSGSRYGTDFTLTISSLQPEDIATYYCQQYSDPPLTFGGGTKVEIK
notes: also called mono-specific anti-FIXa arm in IgG format
As to B4, the binding result in assay [2] is listed as “no binding”.
